Target: mutant (M97S, F110S) EndoBAR (endophilin Bin–Amphiphysin–Rvs domain of mouse endophilinA1) (mouse)
Experiment: cross-linking

Substance “mutant (M97S, F110S) EndoBAR (endophilin Bin–Amphiphysin–Rvs domain of mouse endophilinA1) (domain or fragment)” has a stoichiometry N of 2.
